The nanobody polyreactivity screen of Harvey et al. (2022)

Experiment: yeast display, Sf9 membrane polyspecificity reagent, FACS + sequencing; frameworks hold sequencing errors
In short: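 Nanobodies from a synthetic yeast display library (Saccharomyces cerevisiae BJ5465), induced 36–48 hours with galactose, were stained 1 hour at 4 °C with 10% biotinylated, detergent-solubilized Sf9 membrane reagent, enriched on streptavidin microbeads, then FACS-sorted. Anti-HA (expression) and streptavidin (reagent binding) fluorescence set low and high (top ~1%) gates. Polyreactivity labels come from the gate of origin. Genes were colony-PCR amplified, MiSeq 2 × 250 sequenced and filtered by CDR length.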

Sequence	polyreactivity (PSR sort gate)
QVQLVESGGGLVQAGGSLRLSCAASGRTFQYNVMGWYRQAPGKEREFVAAITWNGGSTYYADSVKGRFTISRDNAKNTVYLQMNSLKPEDPAVYYCAARWTKKQEYGYWGQGTQVTVSS	low polyreactivity
QVQLVESGGGLVQAGGSLRLSCAASGRTFQYYAMGWYRQAPGKERELVAAISWSGARTYYADSVKGRFTISRDNAKNTVYLQMNSLKPEDTAVYYCAADRYWISLWYIMGYWGQGTQVTVSS	high polyreactivity
QVQLVESGGGLVQAGGSLRLSCAASGRTFQYYAMGWYRQAPGKERELVAAITRGDSTYYADSVKGRFTISRDNAKNTVYLQMNSLKPEDTAVYYCNAKLYKPPFDYWGQGTQVTVSS	low polyreactivity
QVQLVESGGGLVQAGGSLRLSCAASGRTFQYYAMGWYRQAPGKERELVAAITSGGSTYYADSVKGRFTISRDNAKNTVYLQMNSLKPEDTAVYYCAASFYYSGHDDYWGQGTQVTVSS	low polyreactivity
QVQLVESGGGLVQAGGSLRLSCAASGRTFQYYAMGWYRQAPGKERVLVAAITSSGGSTYYADSVKGRFTISRHNAKNTVYLQMNSLKPEDTAVYYCAAEDGLQGNYNYGYDYWGQGTQVTVSS	low polyreactivity
QVQLVESGGGLVQAGGSLRLSCAASGRTFQYYTMGWYRQAPGKERELVAAISSSGVSTYYADSVKGRFTISRDNAKNTVYLQMNSLKPEDTAVYYCNAVSRARYHAAYDSWGQGTQVTVSS	high polyreactivity
QVQLVESGGGLVQAGGSLRLSCAASGRTFRANAMGWYRQAPGKERDLVAAITWDGGSTYYADSVKGRFTISRDNAKNTVYLQMNSLKPEDTAVYYCNTDPYLWGQGTQVTVSS	low polyreactivity
QVQLVESGGGLVQAGGSLRLSCAASGRTFRAYAMGWYRQAPGKERELVAGITSGGSTNYADSVKGRFTISRDNAKNTVYLQMNSLKPEDTAVYYCAAKTHSRTKVYTADYWGQGTQVTVSS	high polyreactivity
QVQLVESGGGLVQAGGSLRLSCAASGRTFRAYSMGWYRQAPGKERELVAASSRSGGRTYYADSVKGRFTISRDNAKITVFFQINSLKPEDTAVYYCAAETKYNTHDYYYWGQATQVTVSS	high polyreactivity
QVQLVESGGGLVQAGGSLRLSCAASGRTFRCYAMGWYRQAPGKETELVAAITFSGGSTYYADSVKGRFTISRDNAKNTVYLQMNSLKPEDTAVYYCNAVYYRRKEYDYWGQGTQVTVSS	high polyreactivity
QVQLVESGGGLVQAGGSLRLSCAASGRTFRFYAMGWYRQAPGKERELVAAITGSGGSTYYADSVKGRFTISRDNAKNTVYLQMNSLKPEDTAVYYCAAQRQQRYYNPEHYNYWGQGTQVTVSS	low polyreactivity
QVQLVESGGGLVQAGGSLRLSCAASGRTFRFYAMGWYRQAPGKERELVAGITGGGSTNYADSVKGRFTISRDNAKNTVYLQMNSLKPEDTAVYSCNATIRYYRRGKLYDYWGQGTQVTVSS	high polyreactivity
QVQLVESGGGLVQAGGSLRLSCAASGRTFRFYARGWYRQAPGKERELVAAIRNGGRTNYADSVKGRFTISRDNAKISVFLQMNSLKPEDTAVYYCAIQPGISYRHYDYWGQGTQVTVSS	high polyreactivity
QVQLVESGGGLVQAGGSLRLSCAASGRTFRGNAMGWYRQAPAKDRELVGAGGSTYYADSVKGRFTISRDNAKNTVYLQMNSLKPEASAVYYCGAALGFSRYSWFGYGYWGQGTQVTVSS	low polyreactivity
QVQLVESGGGLVQAGGSLRLSCAASGRTFRGNAMGWYRQAPGKERELVAVITSGDSTYYADSVKGRFTISRDNAKNTVYLQMNSLKPEDTAVYYCATKSRFSRGKAYYYWGQGTQVTVSS	high polyreactivity
QVQLVESGGGLVQAGGSLRLSCAASGRTFRGNAMGWYRQAPGKEREVVAAISWSGGNTYYADSVKGRFTISRDNAKNTVYLQMNSLKPEDTAVYYCAAGSYWSPYGQSFWPKYDYWGQGTQVTVSS	high polyreactivity
QVQLVESGGGLVQAGGSLRLSCAASGRTFRGNVMGWYRQAPGNEREFVAASTRSGSNTYYADSVKGRFTISRDYAKTTVYLQMNSLKPEDTAVYDCAKSVLLGYKRHDSWGQGTQVTVSS	high polyreactivity
QVQLVESGGGLVQAGGSLRLSCAASGRTFRGYAMGWYRQAPGKERELVAAISWSGGSTYYADSVKGRFTISRDNAKNTVYLQMNSLKPEDTAVYYCNAVYRGVAYDYWGQGTQVTVSS	high polyreactivity
QVQLVESGGGLVQAGGSLRLSCAASGRTFRGYAMGWYRQAPGKERELVAGISRSGGSTYYADSVKGRFTISRDNAKNTVYLQMNSLKPEDTAVYYCNAVPIYYAWRRNKPFDYWGQGTQVTVSS	low polyreactivity
QVQLVESGGGLVQAGGSLRLSCAASGRTFRGYTMGWYRQAPGKERELVAAINWSGGRTYYADSVKGRFTISRDYAKNTVYLQMNSLKPEDTAVYDCNAVTQITGSSDGDYWGQGTQVNVSS	high polyreactivity
QVQLVESGGGLVQAGGSLRLSCAASGRTFRHNAMGWYRQAPGKERELVAAISSSGTNTHYADSVKGRFTISRDNAKNTVYLQMNSLKPEDTAVYYCAADRWGARRKQYHENGYWGQGTQVTVSS	high polyreactivity
QVQLVESGGGLVQAGGSLRLSCAASGRTFRHNAMGWYRQAPGKERELVAANSSGGSTYYADSVKGRFTISRDNAKNTVYLQLYSLKREDTAVYYCAASRYRPYGGTTTDYWGQGTQLTVSS	high polyreactivity

Sequence	polyreactivity (PSR sort gate)
QVQLVESGGGLVQAGGSLRLSCAASGRTFRHNTMGWYRQAPGKEREFVAVITSSGGSTYYADSVKGRFTISRDNAKNTVYLQMNSLKPEDTAVYYCNAKYHLSRSTYYYWGQGTQVTVSS	high polyreactivity
QVQLVESGGGLVQAGGSLRLSCAASGRTFRINAMGWYRHAPGKERELVAAITRGDTNYADSVKGRFTISRDNAKNTVYLQMNSLKPEDTAVYYCNAELSFRYPVFRELDYWGQGTQVTVSS	low polyreactivity
QVQLVESGGGLVQAGGSLRLSCAASGRTFRINAMGWYRQAPGKEREFVASIRYSGGSTYYADSVKGRFTISRDNAKNTVYLQMNSLKPEDTAVYYCAAVRSYYRGYDYWGQGTQVTVSS	high polyreactivity
QVQLVESGGGLVQAGGSLRLSCAASGRTFRIYAEGWYRQPPGKERELVARITWSGGRTYYADSVKGRFTISRDNAQNTVYLQMNSLKPEDTAVYYCNAGGSWEFDYWGQGTQVTVSS	low polyreactivity
QVQLVESGGGLVQAGGSLRLSCAASGRTFRKYAMGWYRQAPGKERELVAAISWSGGSTYYANSVKGRFTISRDNAKNTVYLQMNSLKPEDTAVYYCAAVPVHTGSLYWGFTTGYDYWGQGTKVTVSS	low polyreactivity
QVQLVESGGGLVQAGGSLRLSCAASGRTFRKYTMGWYRQAPGKERELVAAISSRGGSTYYADSVKGRFTISRDNAKNTVYLQMNSLKPEDTAVYYCATDYITPSSEGDYWGQGTQVTVSS	high polyreactivity
QVQLVESGGGLVQAGGSLRLSCAASGRTFRLNAMGWYRQAPGKERELVAAITSSGGSTYYADSVKGRFTISRDNAKNTVYLQLNSLKPEDTAVYYCARRQGYGVRSIRWGDYWGQGTQVTVSS	high polyreactivity
QVQLVESGGGLVQAGGSLRLSCAASGRTFRLYAMGWDRPAPGKERELVAAITRGGRTTYADSVKGRFTISRDNAKNTVYLQMNSLKPEDTAVYYCAARYVERHTDYYYWGQGTQVTVSS	low polyreactivity
QVQLVESGGGLVQAGGSLRLSCAASGRTFRLYAMGWYREAPGKERELVAAISYSGGSTYYADSVKGRFTISRDNAKNTVYLPMNSLKPEDTAVYYCAAYSGYYGGDDYWGQGTQVTVSS	high polyreactivity
QVQLVESGGGLVQAGGSLRLSCAASGRTFRLYAMGWYRQAPGKERELVAAIRSGGSTNYADSVKGRFTISRDNAKNTVYLQMNSLKPEDTAVYYCAVDGYFFQGPYYYWGQGTQVTVSS	low polyreactivity
QVQLVESGGGLVQAGGSLRLSCAASGRTFRNNAMGLCRQAPGKEREFVAVISNTGGSTYYADSVKGRFTISRDNAKNTVYLQMNSLKPEDTAVYYCAVRPRYSQYYYWGQGTQVTVSS	high polyreactivity
QVQLVESGGGLVQAGGSLRLSCAASGRTFRPYAMGWYRQAPGKERELVAAISSRGSSTYYADSVKGRFTISRDNAKNNVYLQMNSLKPEDTAVYYCAARSYWGGLRYDYWGQGTQVTVSS	high polyreactivity
QVQLVESGGGLVQAGGSLRLSCAASGRTFRPYAMGWYRQAPGKERELVAAITGGTRTYYADSVKGRFTISRDNAKNTVYLQMNSLKPEDTAVYYCAKGDFFSKHDYLGQGTQVTVSS	low polyreactivity
QVQLVESGGGLVQAGGSLRLSCAASGRTFRPYAMGWYRQAPGKERELVAAITRSGGSTYYADSVKGRFTISRDNAKNTVYLQMNSLKPEDTAVYYCAAYNTYSDTYDYWGQGTQVTVSS	low polyreactivity
QVQLVESGGGLVQAGGSLRLSCAASGRTFRQYAMGWYRQAPGKERELVADISSGGSTYYADSVKGRFTISRDNAKNTVYLKLNRLKPEDTAVYYCNKVSSGRYGSRSFDYWGQGTQVTVSS	low polyreactivity
QVQLVESGGGLVQAGGSLRLSCAASGRTFRRNAMGWYRQAPGKERELVAAISWRGVSTYYADSVKGRFTISRDNAKNTVYLQMNSLKPEDTAVYYCAVDFLYTRRDYWGQGTQVTVSS	high polyreactivity
QVQLVESGGGLVQAGGSLRLSCAASGRTFRRYAMGWYRQAPGKEREFVAAIRYSGGNTYYADSVKGRFTISRDNAKNTVYLQMNSLKPEDTAVYYCAARTYGKYRYSTYYYWGQGTQVTVSS	low polyreactivity
QVQLVESGGGLVQAGGSLRLSCAASGRTFRRYAMGWYRQAPGKERELVAAISRGANTNYADSVKGRFTISRDNAKNTVYLQMNSLKPEDTAVYYCIAKQAGYYFAFGYWGQGTQVTVSS	high polyreactivity
QVQLVESGGGLVQAGGSLRLSCAASGRTFRRYAMGWYRQAPGKERELVAASSRGANTNYADSVKGRFTISRDNAKNTFYLQMNSLKPEDTAVYYCNAKQAGYYFAFGYWGQGTQVTVSS	high polyreactivity
QVQLVESGGGLVQAGGSLRLSCAASGRTFRRYAMGWYRQAPGNERELVAAISYNGGRTYYADSVKGRFTISRDNAKNTVYLQMNSLKPEDTAVYYCNARGPSWFGGRYYHWGQGTQVTVSS	high polyreactivity
QVQLVESGGGLVQAGGSLRLSCAASGRTFRRYTMGWYRQAPGKERELVATISSGGSTYADSVKGRFTISRDNAKNTVYLQMNSLKPEDTAVYYCAARYDVAWYSKRYSWGQGTQVTVSS	high polyreactivity
